assay: soluble on expression in E. coli; label from the status in PepcDB or PDB records

Row | Sequence | soluble on expression in E. coli
1 | MVARSPKGCQEKPVASGKSGIMPSSGRGFRALAPRTLAPFQGAFGGGPSSPGGPHEGGPTPWPTRWRSGSSASGARAGVTPRTLRRIFLEEVERELGPEKARLLAKQTLPFEEIFVVEGRKQRPFSKGLLTRSLEDAGFSLREAHELAKAVERRLRLEGVRRIPAKRLEKVVAEEARRLYGPEAGERYRARLLYAGELFVEEAPGAPRVPFSKGILAQSLMAIGLSPDRAFRLAREMEVALHREGVQVIRRDELRRRVHQALLREAGEEMARRYLILRSLRKQPRPVHILIGGVTGVGKSVLASALAYRLGITHIVPSDAVREVFRVSLSKDLLPTLHLSTFEAWRALSPGLGLEGESYEVQVMRGFLDQVAKVAVGLKAIQERSALEGTSIVLEGVHVVPRFLQHPYQDRVFTIPMLVAVQDENLHRDRFLLRDRETGHARPKERYLQHFEEIRLIQNHLLRWAREEGIPVIPGEDLDEGIEKALEVLVAYLEAQGQRLEEAHA | soluble
2 | GAEPKGLLRVDLPVSLGRMVVIPALPEFTRRYPQVRLEIGMSDRPVDLIREGVDCVLRAGAALDEALVARPLGSLTQITCASREYLQQHGTPLQLEDLAHHQVIEYFSASTSKRYGLEFVGEGGAPDHGLACSISVNSADGY | not soluble
3 | MYKKRQRGEREREIKVEFAMHISIKTLEGKRIKLEVEDSSNTIDLKIHGEPTRELVVDLSPTPDTGAIMMIFIKTLTGRTNTYEVKGSDTIRELKAKHEEKEGIPVEQQRLIFQGRVLEDSKAISDYNIKHESTLHITLHQCGC | soluble
4 | MSLKPLIKIETERTSLIYQVADNGRLYQKYLGKKLNHDSDIQYLPQGTEAYLTHGMEDYFEPAIHIRHNDNNSSLLLKYVDHSSNAIGNGVNETVITLKDDKYPVTVKLHYVAYGKENIIRTFTEISHEEKKPVILCKYASSMLHLNSSKYFLTEFSGDWAHEANVTERELAFGKKVIDTKLGARANMFVSPFFQLALDNPSQENAGEVLVGTIGWTGNFRFTFEVDNKNELRIISGINPYDSEYSLPAREVFRTPDFYFTYSTQGKGEASRNFHDWARNHQVKNGNDTRMTLLNNWESTYFDFDENKLIGLMDEATKLGVDMFLLDDGWFANKYPRSSDHQGLGDWEETADKLPNGVGRLVEEAQKKGIKFGIWIEPEMVNPKSELYEKHKDWVIHLPNRDEYYFRNQMVLDLSNPKVQDHVFGVVDNLMTKYPGIAFFKWDCNSPITNIYSVYLKDKQSHLYVDYVRGLYKVLDRIKAKYPNLPMMLCAGGGGRSDYEALKYFTEFWPSDNTDPIERLFIQWGYSQIFPSKTLCAHVTTWNRGTSIKFRTDVAMMCKLGFDIKLEDMNQNEHLYCDQAVKNYNRLKPVILEGDLYRLVSPYGSNHTSSMFVGKDKKTAAVFAFDIHPRYAEKTLPVRLQGLNADKKYRVKEINMMPGSGSSLKGNNQVFSGEYLMNVGLDLFTTQQLNSRLIEITEEGHHHHHH | soluble
5 | MGSDKIHHHHHHMDFRQFEYVKTIAEEKSISRAAERLYISQPSLSQYIIRLENSLGVKLFDRTSATITLTFAGEKYIETARNIINLNNQLTKELNDIANLSKGRVIIGVPSQAGRYILPLVIPKFYKEYPNIEIIVEENIVSELEKMLLEGKIDIAILTLPVQHEKITYESIMNERIFLIAPKKHPICSVDGRISFNFIRNEKFILLKKGQRIRLIVDDIFSRIGAKPNIILEITNLDAAYRMASSGMGFTIVPENVLYLLNTNGKENDFIIDSLEHTLVVAYRKGEYLTRASREFIANLKGVMKMDYNNKNHNSVSYKKIYID | not soluble
6 | MGSDKIHHHHHHMLGTLKKLRAHLDEAQQVQYQLVVGEELLPLNPLIGQPLTLTHTGNIFCCNCGKKTKKSYSQGHCFVCMQKLASCDMCIMKPETCHFDQGTCREPEWAQSHCFVPHYVYLSNTSGIKVGITRHTQLPSRWIDQGATQGLPIFKVATRQISGLVEVELAKLINDKTHWQAMLKGHADDIDLQAKAAELIPHIEAKLHEIGMQKGNYSIERLQENIQTIHYPIEVFPKKITSHNFDKEAVVSGILQGIKGQYLLFDTGVINIRKFTAYEVSVTLTG | not soluble
7 | MGSDKIHHHHHHMDKIRVIELGSNISAPLVGTILADLGAEVIKVEPPPYGDDRRRVKPEINGISVYFASTNRGKKSVVINLKSDEGYEIFQRLVKTADVIVTNYRPSALKRLKVDYESVKRINPKIIYCSITGFGNLTEEADRPAYDPIILALSGLMDMTGEENPVKFATSISDITTGLLATVMILWALNKGGPTFIDVPMIYTQFYLTLEDAYMYLNTGKVPKRMGSAHRYLVPYQAFKVVDGYIYVAVFNDEQYLKLCKALNREDLCKFDTLQKRVENRDYLIKELGKIFEKNTRDYWVDLLSKADVPVAPVLSLEQAFKKYGNRLVYEIEGVKYIDFPINITSNKSKAPRLGENTKEVLLELGYSEGEINRLAEKGIIMLI | not soluble
8 | MSLQEGEFEPTWESLQNYKVPEWFRNAKFGIWAHWGPQCVEGSGDWMARSLYLEGSREYKHHVEHYGHPSEVGFKDILPLFKAEKWDPDKLVSFYKKIGAQYFFALGNHHDNYDLWDSQYQEWNSVNIGPKKDILAGWAEAAKKNGLPFGISFHADHAWSWYEPAQRYDRHGEKAGVPYDGCLTKEDGKGKWWEGYDPQKLYAQNHPLSAGSWADGMIHRQWAWGNGVCIPTQEYVTNFYDRTVDAINRYNPDLIYFDVTGVPFYPISDAGLKIAAHFYNHNMVVRKGDFSAVMFGKILTDEQRKALVWDVERGSPNSIYEEPWQTCSCLGGWHYDTRLAENGWYKSASDVVKLLVDVVSKNGNLLLSVPLRADGTFDEKEEAILNEFGNWMSMNKEAIYDTRPWKVFGEGPIANADIKINAQGFNEGAYTKATASEIRFTQTKKYLYATVLAWPEEKQVVIQSLATGSELYPDKITKIELLGYGKVSFTRTAQGVVIDMPDVQLNKIAPVFKIKKEGHHHHHH | soluble
9 | MIDPREIAISSRLEKVRNVIPVVSGKGGVGKSLISTTLALLLREKGYKVGLLDLDFHGASDHVILGFEPKEFPEEDKGVVPPEVNGVKFMTIVYYTENKPTPLRGKEVSDALIELLTITRWDELDYLVIDMPPGLGDPFLDVLRFLKRGKFIVVATPSKLALNVVEKLIQLLKEENREILGIIENMKLDEEEDVKNLAKRHGINYLLGVPFYRDLEEKIGKVEELLKTPFADKLREVIKVLV | soluble
10 | MERECEESVVVAVVTEPRFTQRYRDYLEEQKLLDRLHRVAKLRDGAVALPVLAESLSEQHLQELRDRVAPGSTCVLTRLPDPLPSKKARVRSPAQILCLEVRRWVEDRGVTWSAELEADLPRSWQRHGDLMLLSEDCFQATLWKGLEPELWETVASALGVQRLAKRGRVLPDGTRTPSVTLLLGDHGWVEHMDNGIRYKFDVTQCMFSFGNITEKLRVASLSCAGEVLVDLYAGIGYFTLPFLVHAGAAFVHACEWNPHAVVALRNNLEINGVADRCQIHFGDNRKLKLSDIADRVNLGLIPSSKEGWPVACQVLRKDVGGILHIHQNVESFSGKTPQPPGSNNVEKEHWPRPQKITTDTQGNGTTENFRGEISSANKPEWWRWAESAETQIASLLHQVHGKPWRTRILHVHPVKSYAPHVDHIVLDLECRPLTSSWPEGVDLLTQ | soluble
11 | MGKKSKNSVTTQTQWKRLKIDFVERKIDKDDVFFEEVSDEQLNDKIIVPLFTSSGTFEETIGILIQWQEYLKSRSDRLSEVFLSKVNSYFEHIRITLALPFDESKWAELETLTETDLNKTPIFINNIRTSTVSVILHLENLIKSFHLNVKSAEIFPFDSDSFGLPPINCRKILNPLLWMKAGIEKLIQNNCQCDQPPIVPLITLLDLAPKEGHFQELAIASFFLENTAHKLDYSCSDDEKKFLDQIKMKFGTTKVDKLTMVLPDILMAYSEELVERVMPVSYFIPFELFRMMLLSWQPKVLNLRLRTEACSSIEDAARIEWDDEDVFTSTTLFNCPLFDRCEPVCLGDEEIILNCKLIVDCSGSRLFDPMFNEGNVYTAGRDFLVLFPMQTIILKRIVPLKVGSSVKVQLKKQIDYIVNTFFFNASEHQDRVVNYELTFTNSTDVQMSAVKRCIPQVANGRQIGVNLNVEQETRDLFTDHGNSCPGRHMFASFFDSENQVIVDLKVVLAN | not soluble
12 | MSLANQPIDLLMQPKWRVIDQSSLGPLFDAKQSFAMDDTLCMSVGKGVSPATARSWVHHDTIVLGIQDTRLPFLQDGISLLESEGYRVIVRNSGGLAVVLDDGVLNISLIFEDEKKGIDIDKGYEAMVELMRRMLRPYNAKIEAYEIEGSYCPGSYDLSINGKKFAGISQRRVRGGVAVQIYLCADKSGSERADLIRRFYQAALKDKQNDKKGVYPEIRPETMASLSELLQKDISVQDLMFALLTELKALSTHLYSAGLSIDEEMEFEKNLVRMAERNAKVFGEGHHHHHH | soluble
13 | MSPEDAITRAELLRRREAGEVTLVDVRPHEEYQAGHIPGAINIPIAELADRLAELAGDRDIVAYCRGAYCVMAPDAVRIARDAGREVKRLDDGMLEWRLAGLPVDEGALEHHHHHH | not soluble
14 | MTRRCELLVVGAGPAGMAAATQSAALGVDTLLLDEQATPGGQIYRAITTTALTRPDILGPDYWHGASLLEPLRASGAAYLSGATVWAVSRGAEAGDGGAFEVAYSVGGQADILRARHILLATGALERPFPIPGWTLPGVVTAGAAQILLKTAAIVPGEHAVLAGGGPLLYLLAWQYLNAGVRIERLLETTAPGGLARALPHALDFLRSPYLAKGLKLMRAVRAHVPITRGVRDLRAQGRERLESLSYRAGGRTHDMPARHLMLHQGVVPNLNLSRALGVDHQWNPTQACWQPRVDDWGATSVAGIGIAGDGADIGGAIAAEHRGRLAALQAAVALGRIDDARRDREARAPRRALARAMRGRAFFDVLYRPADAYRRPGDDTIVCRCEEITAGQIRATVRLGCSGPNQMKAFLRCGMGPCQGRLCGLTVSELIAHERGVPLPEVGYYRLRFPTKPVTLGELASLPQTEASRQAVVRLKKTALEHHHHHH | not soluble
15 | GSQEVRRGDFVRNWQLVAAVPLFQKLGPAVLVEIVRALRARTVPAGAVICRIGEPGDRMFFVVEGSVSVATPNPVELGPGAFFGEMALISGEPRSATVSAATTVSLLSLHSADFQMLCSSSPEIAEIFRKTALERRGAAASA | soluble
16 | MGIKQYSQEELKEMALVEIAHELFEEHKKPVPFQELLNEIASLLGVKKEELGDRIAQFYTDLNIDGRFLALSDQTWGLRSWYPYDQLDEETQPTVKAKKKKAKKAVEEDLDLDEFEEIDEDDLDLDEVEEELDLEADDFDEEDLDEDDDDLEIEEDIIDEDDEDYDDEEEEIK | not soluble
17 | MSLILCIDVGNSHIYGGVFDGDEIKLRFRHTSKVSTSDELGIFLKSVLRENNCSPETIRKIAICSVVPQVDYSLRSACVKYFSIDPFLLQAGVKTGLNIKYRNPVEVGADRIANAIAATHSFPNQNIIVIDFGTATTFCAISHKKAYLGGAILPGLRLSADALSKNTAKLPSVEIIKTESVVGRSTIESIQSGVYYGVLGACKELIQRIHHEAFNGDQILILATGGFASLFDKQGLYDHLVPDLVLQGIRLAAMMNTAEGHHHHHH | soluble
18 | MSLQTPMQTVDDLRSVCDELPHSLETFPFDDETLVFKVGYLSKSRMYALTDITQDPLRLSLKVDPERGEELRQAHPQSIAPGYHLNKKHWVTVTLDGTVPAELLGELLRGSYLLVTKKGFTKAERKELGLPDSLEGGSHHHHHH | soluble
19 | EHIEELLRNIRTQVLIKLIKPYTRIHIPFISKELNIDVADVESLLVQCILDNTIHGRIDQVNQLLELDHQKRGGARYTALDKW | soluble
